4 sequences from publication PMC4705688 can be followed below.

Data set [1] addresses His-Cmr HTH- del195-244 (Mycobacterium tuberculosis H37Rv) (UniProt P9WMH5). Description: EMSA.
The target in data set [2] is His-Cmr HTH+ del217-244 (Mycobacterium tuberculosis H37Rv) (UniProt P9WMH5). The data set is described as follows: EMSA. On the technique in general: In EMSA bound probe runs differently from free probe, usually more slowly.
In data set [3] the target is His-Cmr (Mycobacterium tuberculosis H37Rv) (UniProt P9WMH5). Description: EMSA.
Data set [4] has the same target. The data set is described as follows: DNase I footprinting.

His-Cmr HTH- del195-244 (Mycobacterium tuberculosis H37Rv), sequence (P9WMH5 1-194): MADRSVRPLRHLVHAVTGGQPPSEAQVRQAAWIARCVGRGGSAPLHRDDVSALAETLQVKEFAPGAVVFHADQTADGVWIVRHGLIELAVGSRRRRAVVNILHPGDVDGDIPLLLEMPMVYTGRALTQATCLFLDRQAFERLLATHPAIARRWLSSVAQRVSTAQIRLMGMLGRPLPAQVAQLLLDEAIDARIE
His-Cmr HTH+ del217-244 (Mycobacterium tuberculosis H37Rv), sequence (P9WMH5 1-216): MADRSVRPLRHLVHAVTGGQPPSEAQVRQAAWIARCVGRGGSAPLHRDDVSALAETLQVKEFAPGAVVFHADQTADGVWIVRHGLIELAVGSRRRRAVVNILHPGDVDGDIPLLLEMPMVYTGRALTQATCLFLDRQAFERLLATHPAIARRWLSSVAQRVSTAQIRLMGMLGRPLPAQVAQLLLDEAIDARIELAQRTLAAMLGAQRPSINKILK
His-Cmr (Mycobacterium tuberculosis H37Rv), sequence (P9WMH5 whole entry): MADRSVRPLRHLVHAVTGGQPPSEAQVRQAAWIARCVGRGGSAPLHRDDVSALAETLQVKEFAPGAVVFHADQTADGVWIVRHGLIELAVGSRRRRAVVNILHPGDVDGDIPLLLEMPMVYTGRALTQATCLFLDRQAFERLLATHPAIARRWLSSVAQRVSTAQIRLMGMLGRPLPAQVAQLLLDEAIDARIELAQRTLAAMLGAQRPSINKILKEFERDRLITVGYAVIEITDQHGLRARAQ

As for “ATCTCAACTATGTGGCCTTGTCCTTAGTCACCGCCGACGGACACACCCTGCTGCACCACCCGTATACCCAGAGCGAGGTGGACATCAAGAAGAACGTGTTCACGATGATGATGCGGCTACCGTGGTTGTATCGCGTTCCCGTACATACGATTCACAAATTTGGCCACATGCTCAGCGGCATGGCGATCCGGATCGTC (double strand) [2G5 full]”, the binding entry in data set [1] is recorded as “no binding”; in data set [2] it was “binds”; in data set [3], “binds”.
Regarding “TAAAGTCACCGCCGGGGCCGATGTTCGCAGTCGCGGGCTCGGTGCCATCCATATCGTTGCGCAGCGCGATGCCGTGCCAATGCACCGACGTCGGATCACCCAGACGGTTGGTCACCGAGACGACAATCTCATCCCCGACGGTGGCCCGGATCAGTGGTCCGGGGATGGTGTTGCCGTAGGTCAGCGTGCTGACGATCGGCCCACCCAGGTCGATCCTCGCCGGCTGGGGGGTCAGCGTGGCGGTAACCGTTCGCCCACTGTGCGGCCGGGCCGCCTCGGCCGCGTCGATTGCAGCGGT (double strand) [Rv0846c]”, in data set [3], the binding result is reported as “binds”.
Consider “CGGACTGCTGCTGCTCGCCGTTGTCTCCGGTGATTGGGTTGCCCATACCTCCTGGGGCGCAGCGTGGTTCAGCTTGTCACCGGTGACACTGTGTTGGCTTCTCATCAGCTATGGCTTCGCAGCTTCGGTGCTGCCGGTGTGGCTGCTGCTCGCGCCACGCGACTACCTGTCAACGTTCATGAAGG (double strand) [1C1 full]”, for which the binding result is given as “no binding” in data set [1], “binds” in data set [2], “binds” in data set [3] and “binds” in data set [4].
As for “TCTATGGCGGCCAGGGACGCACATTGTGGGCTTCGGGGTAATTGTCTTGGGTTGGCTGCCCCGCGCTGCACAGGGTTACTGGCCCAGGAGGCGGACGTCATCGTGTTAACACCCGTCGGGATAACCTGGGAGCGGCGCAGCCAAGGAAGGAACCAACCGTCCGGTGTCAGACCTAGCCAGAACCGACGTCGTGCTGATC (double strand) [2C5 full]”, the binding entry in data set [1] is “no binding”; in data set [2] it was “binds”; in data set [3], “binds”.
